From US20090075394A1

Biological target: Aeropyrum pernix KvAP voltage-dependent potassium channel (Aeropyrum pernix) (UniProt Q9YDF8)
Assay: inhibition of KvAP channel currents by CTX, channels in planar lipid bilayers

Aeropyrum pernix KvAP voltage-dependent potassium channel (Aeropyrum pernix), sequence (Q9YDF8 14-295): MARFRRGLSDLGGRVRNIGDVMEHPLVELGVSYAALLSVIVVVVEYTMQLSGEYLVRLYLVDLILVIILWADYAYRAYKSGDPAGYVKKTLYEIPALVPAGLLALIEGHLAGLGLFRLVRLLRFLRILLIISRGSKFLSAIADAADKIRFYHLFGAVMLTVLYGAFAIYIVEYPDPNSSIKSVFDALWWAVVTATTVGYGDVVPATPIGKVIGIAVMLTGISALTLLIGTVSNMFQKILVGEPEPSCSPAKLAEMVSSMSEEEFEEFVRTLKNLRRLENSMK

**Q.** With “charybdotoxin (from UniProt P13487 23-59) (peptide)” as the substance, how does the Kd read?
**A.** 400 µM
